Laboratory results taken from the DeepSol protein solubility set.

experiment: soluble on expression in E. coli; label from the status in PepcDB or PDB records

For “MSLKEDYADVRNVMIMGGSRIAVRTAQYVPDYMQVKIVDNDINRCNRLTELLDDKTMIINGDGRDMDLLIEEGLKNTEAFVALTDNSETNILACLAAKRMGVEKTVAEVENIDYIGMAESLDIGTVINKKMIAASHIYQMMLDADVSNVKCLTFANADVAEFTVPAGAKITKNLIKDLGLPKGTTIGGMIRNGEGVLVTGDTLIRPGDHVVVFCLSMMIKKIEKFFNEGHHHHHH”, which “soluble on expression in E. coli” value is on record?
Its value is “not soluble”.

For “MSLKFIEKMLPEESPIDLLINLSRRGEAAVVLLKDAIEDYFTGKFGEGHLNRVISLERESDEIKSKLKKMYLKMKYTYFEKDDFLYIVHKADEILDVVRDIVIMLDMNRVEDVPENIKELFAELVENVLDTIRETTEAIEQLRTLAESGFSPFEKEKEEREIFDVSMEEREVDTISRNLGKKLYSLKNSMNPVDLIFLNKVARLISKIADQGKDITKRINSILREGHHHHHH”, which “soluble on expression in E. coli” value is on record?
The value was “soluble”.

Which “soluble on expression in E. coli” value does the source give for “MSLKGRPIKEFSLVMDLSQAKKGADKMGYMEDLRKRVGTRPLILPASVVIILNEQDEILLQKRLDGRWGLPGGLMELGESFEETAKREILEETGLTIKNVTFLDVFSGKDLYVKVENGDEFYAVTALFMTREVAGGIQMDPRESLDLQYIALDQFPPNVTRTSKIFLDRFMELKEGHHHHHH” here?
Its value is “soluble”.

Which “soluble on expression in E. coli” value does the source give for “MSLKGYPFLDKANAPFVDRHVTKAGEIFYPWDGKRIDGFGLIGAPLSKSSISHSGASFAPTVIRKCLHAFSTYSVEEDLDLAQLKLTDLGDITMHVTDIVGSQARIEETMTKLLENEQNWQPIVLGGDHSISFPSIKAFASAKGTIGVIQFDAHHDLRNLEDGGPCNGTPFRSLLETGSLVGEHLVQIGIRDFSNSYPYRKYAEKHGVKVYTMKDVNARGLLTILDEAVAKLKRSVDVIYVSVDMDVLDQAHAPGCPAIGPGGMDSTTLLQGIFHLGKDSLVQGMDIVEVDPTLDFREMTSRAAAHVILNYLKGKCIKSEGHHHHHH” here?
Its value is “soluble”.

For “MSLKGYYSNKISLEDLNKNIEDKKEQTIYFYQTSCVHCQKVSPIVVPLAKDLNVDMKVIDIENLNEPWDKYNIQGTPTIIHFKDGKEVSRISGEQSKDKFKEWFEQTKKEGHHHHHH”, which “soluble on expression in E. coli” value is on record?
The value was “soluble”.

Which “soluble on expression in E. coli” value does the source give for “MSLKHEQIINEKIIIDTSIFTNPEVYQTFGNDPTDALRSFLEIISKLKGPIFYMPQTIYEELLNFVEIKDIQVDLQMLLQQKSPKRYELTVPAFLLYELIEDVRLRIDKGLRVAETAVRETSPDTEPEAIANLRKKYRMALREGIIDSKEDVDLILLAKEMDGIMMTADTGIVKWADKLGIRYIDPRMLRSILDKLAAASEGHHHHHH” here?
Its value is “soluble”.

With “MSLKHLTEMVRQHKAGKTNGIYAVCSAHPLVLEAAIRYASANQTPLLIEATSNQVDQFGGYTGMTPADFRGFVCQLADSLNFPQDALILGGDHLGPNRWQNLPAAQAMANADDLIKSYVAAGFKKIHLDCSMSCQDDPIPLTDDIVAERAARLAKVAEETCLEHFGEADLEYVIGTEVPVPGGAHETLSELAVTTPDAARATLEAHRHAFEKQGLNAIWPRIIALVVQPGVEFDHTNVIDYQPAKASALSQMVENYETLIFEAHSTDYQTPQSLRQLVIDHFAILKVGPALTFALREALFSLAAIEEELVPAKACSGLRQVLEDVMLDRPEYWQSHYHGDGNARRLARGYSYSDRVRYYWPDSQIDDAFAHLVRNLADSPIPLPLISQYLPLQYVKVRSGELQPTPRELIINHIQDILAQYHTACEGQEGHHHHHH” as the sequence, how does the “soluble on expression in E. coli” value read?
The value was “soluble”.

Which “soluble on expression in E. coli” value does the source give for “MSLKICNFRAHYSPTMLSYVIIFMVEKMNYIKINLKLNNPLAFWANFSESERFFWFDPQKETFVIGCERLKAIDLEHDKFSDYTYLFHSQTFFDDIKGELWENFGGETIAFKHYFVVNKENSYTLTCDSPREIPEITIPKFKHQLTEKASDFSAWQELFYAIQKNFADGKSRKIVASRELEFTSQTSFELESIIQNLLDNNPNAFIFAYQKGKRIFLGASPEILVQKENDQLLSYALAGTFPKTMENAGQKLLTDPKNLLEHDIVVQKIKRNLLEKAETVTVGTTELMELKNVYHLRTILSAKNSELSLIDWTKQLHPTPALGGEPRHEALEFLRKHENHERGLYAAPLGLIDSKGNGTMIVGIRSALIVDKKLYAYAGCGIIPSSDALEEFRETKVKLKTILEALEGHHHHHH” here?
The value was “not soluble”.

Which “soluble on expression in E. coli” value does the source give for “MSLKIFGTDGVRGKAGVKLTPMFVMRLGIAAGLYFKKHSQTNKILIGKDTRKSGYMVENALVSALTSIGYNVIQIGPMPTPAIAFLTEDMRCDAGIMISASHNPFEDNGIKFFNSYGYKLKEEEEKAIEEIFHDEELLHSSYKVGESVGSAKRIDDVIGRYIAHLKHSFPKHLNLQSLRIVLDTANGAAYKVAPVVFSELGADVLVINDEPNGCNINDQCGALHPNQLSQEVKKYRADLGFAFDGDADRLVVVDNLGNIVHGDKLLGVLGVYQKSKNALSSQAVVATNMSNLALKEYLKSQDLELKHCAIGDKFVSECMQLNKANFGGEQSGHIIFSDYAKTGDGLVCALQVSALVLESKQVSSVALNPFELYPQSLVNLNVQKKPPLESLKGYSALLKELDKLEIRHLIRYSGTENKLRILLEAKDEKLLESKMQELKEFFEGHLCEGHHHHHH” here?
Its value is “soluble”.

For “MSLKIIILGAGQVGGTLAENLVGENNDITVVDKNADRLRDLQDKYDLRVVNGHASHPDVLREAGAQDADMLVAVTNTDETNMAACQVAFTLFNTPNRIARIRSPQYLAEKEALFQSGAVPVDHLIAPEELVTSYIERLIQYPGALQVVSFAEEKVSLVAVKAYYGGPLVGNALSALRDHMPHIDTRVAAIFRQGRPIRPQGTTIIEADDEVFFVAASNHIRSVMSELQRLEKPYRRIMIVGGGNIGASLAKRLEQTYSVKLIEHNYQRAEQLSEQLENTIVFCGDAADQELLSEENIDQVDVFIALTNEDETNIMSAMLAKRMGAKKAMVLIQRSGYVDLVQGGVIDVAISPQQATISALLTHVRRADIVNVSSLRRGAAEAIEAIAHGDESTSKVVGRAVGDIKLPPGTTIGAIVRGEEVLIAHDRTVIEQDDHVVMFLVDKKYVPDVETLFQPSPFFLEGHHHHHH”, which “soluble on expression in E. coli” value is on record?
Its value is “soluble”.

Which “soluble on expression in E. coli” value does the source give for “MSLKIIPYSVNVMDEHGVIIASGEPSRLRQRHEGAILALKENRIVEIDSATANQLKGVRSGINLPISFHEQLIGVVGITGEPEEVRAYAELVKMAAELVIEHMVLIEQRQWDKRYREELINQLILRENSTESLRSMAAYLGIDLAVPRVVLIIELSQPDREALRNVMDYFENHARNHLVTFTEFNELIIIKPITLKEGKWNTRQEMGELQIFKSWAASSGFSRILVGGYFAGETGLHRSLLTARATQAMAKRQKLRSQYIFYHDHALPALLSGLSESWQVQELSRLWLQLVQHDAKGVLQQTLRTWFEHNCDLTQTAKALHIHVNTLRYRLQRCEDITHIKINELKSTLWLYIGMELQAESVSSDKLPLPGREGHHHHHH” here?
Its value is “not soluble”.

For “MSLKILFAVSECTPFVKSGGLADVAGALPKALARLGNEVAVMLPKYSQIPEPWKKRMKKQAECTVAVGWRQQYCGIEHMAENDVNYYFIDNEYYFNRDSLYGHYDDGERFAFFSRAVLEAAKVVNVQADIVHTHDWHTAMVNYLLKEEYRKHPFYERMKSVLTIHNLQFQGIFPPDVTHDLLGLEMDHFHYERLECNGFVNFMKAGIIAADHVTTVSPTYRNEIMTPYYGEQLEQVLQYREDDVTGILNGIDDTFYQPKSDPYIEAQYDSGDLACKLENKTKLQQRMGLPEKNDIPLISMVTRLTKQKGLDLVRRIMHELLEEQDIQLVVLGTGEREFEDYFRYAEFAFHEKCRAYIGFDEPLAHQIYAGSDMFLMPSKFEPCGLGQLIALQYGAIPIVRETGGLYDTVRAYQEEEGTGNGFTFSAFNAHDLKFTIERALSFYCQQDVWKSIVKTAMNADYSWGKSAKEYQRIFEQVTRSGRDVLEEGHHHHHH”, which “soluble on expression in E. coli” value is on record?
Its value is “soluble”.

For “MSLKITIRDIAKQAEVSISTVSFVINGKGEKMAISPAVIKKVQDVAQKLQYKPSMIASSLRTGKTRSIGLIVEDISNQFFADLARVIEDEAKNINYRVFYCSTGDDNDRSEELVQSLLQANVEGFIITPTRNLEKTISQLLKLQKPVVLIDRYFANQKVSHVVMDNYEGSYSAVKFLISKGRKNIAVVNNKSGMIQMKLREKGYVEALKEEGIYNEKYTLLLDYHSSEKTRIEEIINFFNQNKEIDAVLFCANYMGLAGLQAFRTLNYKIPNDISVISFDDHDSFKLHTPTISVIAQPIEDIAVESIQLLMSQMTNFEDFKIEKVLKKGTLIIRESVEGHHHHHH”, which “soluble on expression in E. coli” value is on record?
The value was “soluble”.

With “MSLKITRIEAIPYAIPYSRPLKFASGEVSTAEHVLVRIHTDAGICGVADTPPRPYTYGETQDSIVSVVTKVFAPQLIGMDPMDRSKVQQLLGRTVNNPTAKGALDIALWDVIGISLGTPVHKLLGGFSDSMRVSHMLGFKAAAELLEEALRFRETYGIDTFKLKVGRRPLSLDVEACHVLREGLGADTEIYLDANRGWTANEAMEVLRRTEGLGLSMLEEPCDAAEAMGRRRLVQHSSIPIVGDESVPNLGDVSRELLSGGSNAICIKTARSGFTEAQQILGLCEGLGVDVTMGNQIDTQVGSLATVTFGAAFEASSRRAGELSNYLDMTDDLLAEPLEITDGAIRVRKAPGVGAAIDADKLQKYREGHHHHHH” as the sequence, how does the “soluble on expression in E. coli” value read?
Its value is “soluble”.

Which “soluble on expression in E. coli” value does the source give for “MSLKIYESYEDLPKLKLPYGNEVFISDSTIRDGSQMPGIVLSREHKIQIYEYLHEIGIEKLEAFVFNKRDRDAVDLMFDKGYEFPEITGWARSSRADIDKILEVDGIEETGILMSVSDTHIHSKMRLSGREEAEERYLDALQYAVDHGLKTRAHLEDMTRADNYGFVFPLVKKIMEIDPDCIIRVCDTVGYGMPFMNIDEPYGIPKIIQHLKKEIGVKNIETHIHDDYGFGSASSIAGFWHGANWTSVTFLGIGERAGNSEMEKILLFLADRVEGFDKYNLEPVTRFAEFMEKELGLRVPRNKAVVGKNIFAHESGIHAAGVLKNPFNYEPYPPELVGGTRLLLIGDSSGLEVIRYKVQETLNNLLDVETVVEKDDRRLLKIQKEIQKLYDKEERVSCISDEELLAYVEKYFLYQPISDPARTGRGKLKNRGKIQEPVEEKEGHHHHHH” here?
Its value is “not soluble”.

With “MSLKKAIAYMRFSSPGQMSGDSLNRQRRLIAEWLKVNSDYYLDTITYEDLGLSAFKGKHAQSGAFSEFLDAIEHGYILPGTTLLVESLDRLSREKVGEAIERLKLILNHGIDVITLCDNTVYNIDSLNEGHHHHHH” as the sequence, how does the “soluble on expression in E. coli” value read?
Its value is “not soluble”.

For “MSLKKIEKIIEKEIHKNKLLQALMKKNQKTDKKTVFELVKQFNQKLNLTTILKTIRTKRSTYYYWLKAENKIKAKKEKYLLQQNRIKALCLHQQYFYGHRKITDLYQKTFNEFITKKKVYTIMKKNDINCRLRIKKNKYNYKNNLKTKLKVVDNLINQDFISIAPLQKLFTDITYFKIPQGFLYFSCIIDSFNNQIIASHTSKHQNKELVLNTIQKLPLLKEPCIIHSDQGTVYQSQKVQQTLTKKGFLISMSRKATPRDNAVIENFFGQMKTILQHQHPFLFQKSTKKLKKIINHFPKFWNNQWILAKLNYSSPSQYSQNLIEGHHHHHH”, which “soluble on expression in E. coli” value is on record?
The value was “not soluble”.

For “MSLKKILILFFSIILSLGMVSCSSSGDYKNVSTSKIKKALKSSDLLIKESKIFDAKDFNYFNDVEEDIIQGFVINSSEKLSLEDIIVIKTDEVDKIYKTLENYKKDMIQAPFGEGHGEKINSEIANNTIIEKAGRYVYLISAENATQIENKILNIIKEGHHHHHH”, which “soluble on expression in E. coli” value is on record?
The value was “soluble”.

For “MSLKKRRTIGFLVNDIDVSYSNLVYLMTKKAAEKYDCNLIVYEGRSFNNPSMADSQHQISYSFVDNTRLDGIIITSATIACFISDEEFVEFCKRYEGIPLVSLGIVVPHATSILVDNKPGMKSQVEHLIKDHGFKKIVYISGPPTNTDSVERLEAYCEALRENDIEVDDGLIFYGDFMAQSGYDIIKEIIKNGIEYDAVVCANDEMAFGAIKGIRDLKDAYNLDLTQKGVICGFDDSITSRLVKPSLTTVRQPIEEMCFYAVEAILKKIEGEKVEDVVKLPSVLVKRESCGEGHHHHHH”, which “soluble on expression in E. coli” value is on record?
The value was “soluble”.

With “MSLKLVTFDLDDTLWDTAPAIAGAEVTLRDWLAEHAPKLGAIPVEHLWEIRSRLVAEDPSFKHRISALRRRVLFHALEDAGYDPDEAQDLADRGFEVFLHGRHQVQIFPEVQPMLEILAKTFTLGVITNGNADVRRLGLADYFAFALCAEDLGIGKPDPAPFVEALRRAKVDASAAVHVGDHPKDDIAGAQQAGMRAIWYNPQGKAWDADRLPDAEIHNLSQLPEVLARWAEGHHHHHH” as the sequence, how does the “soluble on expression in E. coli” value read?
The value was “soluble”.
